Tests used:
[1] = target: T1, RBM10 RRM1-ZnF (Homo sapiens) (UniProt P98175); test: pulldown; settings: 20 nM protein; 20 mM Hepes pH 7.8, 80 mM KCl, 20 mM NaCl, 10% glycerol, 2 mM DTT; 4 C
T1 sequence: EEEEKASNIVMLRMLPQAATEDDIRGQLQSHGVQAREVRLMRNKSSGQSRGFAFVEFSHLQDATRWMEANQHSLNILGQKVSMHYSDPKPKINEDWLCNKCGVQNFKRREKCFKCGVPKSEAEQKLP

[2] = target: T2, RBM10 RRM1-ZnF-RRM2 (Homo sapiens) (UniProt P98175); test: pulldown; settings: 20 nM protein; 20 mM Hepes pH 7.8, 80 mM KCl, 20 mM NaCl, 10% glycerol, 2 mM DTT; 4 C
T2 sequence: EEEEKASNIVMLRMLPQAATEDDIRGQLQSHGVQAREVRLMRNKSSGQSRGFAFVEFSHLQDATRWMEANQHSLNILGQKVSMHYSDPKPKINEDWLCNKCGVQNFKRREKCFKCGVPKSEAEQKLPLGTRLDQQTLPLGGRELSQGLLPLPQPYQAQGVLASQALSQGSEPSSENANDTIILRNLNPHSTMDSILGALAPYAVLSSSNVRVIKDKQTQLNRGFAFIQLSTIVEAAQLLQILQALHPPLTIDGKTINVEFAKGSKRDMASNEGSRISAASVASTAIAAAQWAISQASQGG

[3] = target: T3, RBM10 RRM1-ZnF (Homo sapiens, UniProt P98175 129-242); test: ITC; 10 uM ZnCl2; 10 mM sodium phosphate pH 6.9, 50 mM NaCl, 1 mM TCEP (+10 uM ZnCl2 for ZnF constructs); ITC 25 C; NMR 298 or 310 K; settings: protein: recombinant; tags: His6 or His6-SUMO3, cleaved with HRV 3C
T3 sequence: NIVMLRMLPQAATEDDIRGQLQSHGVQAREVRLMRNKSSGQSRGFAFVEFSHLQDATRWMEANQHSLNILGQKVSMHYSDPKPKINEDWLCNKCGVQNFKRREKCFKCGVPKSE

[4] = target: T4, RBM10 RRM2 (Homo sapiens, UniProt P98175 300-384); test: ITC; 10 mM sodium phosphate pH 6.9, 50 mM NaCl, 1 mM TCEP (+10 uM ZnCl2 for ZnF constructs); ITC 25 C; NMR 298 or 310 K; settings: protein: recombinant; tags: His6 or His6-SUMO3, cleaved with HRV 3C
T4 sequence: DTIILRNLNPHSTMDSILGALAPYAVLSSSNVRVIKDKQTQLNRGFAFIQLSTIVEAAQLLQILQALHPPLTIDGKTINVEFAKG

[5] = target: T3, RBM10 RRM1-ZnF; test: ITC; 10 uM ZnCl2; 10 mM sodium phosphate pH 6.9, 50 mM NaCl, 1 mM TCEP (+10 uM ZnCl2 for ZnF constructs); ITC 25 C; NMR 298 or 310 K; settings: protein: recombinant; tags: His6 or His6-SUMO3, cleaved with HRV 3C; remark: listed apart in the source
[6] = target: T5, RBM10 RRM1-ZnF-RRM2 (Homo sapiens, UniProt P98175 129-384); test: NMR; 10 uM ZnCl2; RRM1-ZnF slow exchange, Kd in nM range; RRM2 second weak event, Kd in uM range; 10 mM sodium phosphate pH 6.9, 50 mM NaCl, 1 mM TCEP (+10 uM ZnCl2 for ZnF constructs); ITC 25 C; NMR 298 or 310 K; settings: protein: recombinant; tags: His6 or His6-SUMO3, cleaved with HRV 3C
T5 sequence: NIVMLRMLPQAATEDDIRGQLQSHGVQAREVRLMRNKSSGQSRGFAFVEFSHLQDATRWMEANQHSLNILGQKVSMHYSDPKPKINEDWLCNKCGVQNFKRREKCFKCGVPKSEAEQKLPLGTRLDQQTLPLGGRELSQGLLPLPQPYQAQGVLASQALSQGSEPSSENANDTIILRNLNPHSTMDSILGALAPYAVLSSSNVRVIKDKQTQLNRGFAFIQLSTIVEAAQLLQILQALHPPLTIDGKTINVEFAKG

[7] = target: T3, RBM10 RRM1-ZnF; test: ITC; 10 uM ZnCl2; 10 mM sodium phosphate pH 6.9, 50 mM NaCl, 1 mM TCEP (+10 uM ZnCl2 for ZnF constructs); ITC 25 C; NMR 298 or 310 K; settings: protein: recombinant; tags: His6 or His6-SUMO3, cleaved with HRV 3C; remark: listed apart in the source

Molecule: AAAGGGU [7-mer AAAGGGU]
- binding signal (RNAcompete z-score) [1]: 5

Molecule: AAGGGUG [7-mer AAGGGUG]
- binding signal (RNAcompete z-score) [1]: 5.25
- binding signal (RNAcompete z-score) [2]: 5.29

Molecule: AGGGAAA [7-mer AGGGAAA]
- binding signal (RNAcompete z-score) [2]: 4.87

Molecule: AGUAGGG [7-mer AGUAGGG]
- binding signal (RNAcompete z-score) [2]: 4.88

Molecule: GAAAGGA [7-mer GAAAGGA]
- binding signal (RNAcompete z-score) [1]: 5.87
- binding signal (RNAcompete z-score) [2]: 5.67

Molecule: GAAAGGG [7-mer GAAAGGG]
- binding signal (RNAcompete z-score) [1]: 6.04
- binding signal (RNAcompete z-score) [2]: 5.54

Molecule: GAAAUGG [7-mer GAAAUGG]
- binding signal (RNAcompete z-score) [1]: 5.03
- binding signal (RNAcompete z-score) [2]: 4.79

Molecule: GAAGGGG [7-mer GAAGGGG]
- binding signal (RNAcompete z-score) [1]: 5.25
- binding signal (RNAcompete z-score) [2]: 4.83

Molecule: GAGUGGG [7-mer GAGUGGG]
- binding signal (RNAcompete z-score) [1]: 4.99
- binding signal (RNAcompete z-score) [2]: 4.9

Molecule: GGAAAGG [7-mer GGAAAGG]
- binding signal (RNAcompete z-score) [1]: 6.53
- binding signal (RNAcompete z-score) [2]: 6.43

Molecule: GGAAGGG [7-mer GGAAGGG]
- binding signal (RNAcompete z-score) [1]: 6
- binding signal (RNAcompete z-score) [2]: 5.56

Molecule: GGAUGGG [7-mer GGAUGGG]
- binding signal (RNAcompete z-score) [1]: 5.66
- binding signal (RNAcompete z-score) [2]: 4.83

Molecule: GGGAAGG [7-mer GGGAAGG]
- binding signal (RNAcompete z-score) [1]: 5.91
- binding signal (RNAcompete z-score) [2]: 5.54

Molecule: GGGAUGG [7-mer GGGAUGG]
- binding signal (RNAcompete z-score) [1]: 5.71
- binding signal (RNAcompete z-score) [2]: 5.12

Molecule: GGUAAGG [7-mer GGUAAGG]
- binding signal (RNAcompete z-score) [1]: 4.97
- binding signal (RNAcompete z-score) [2]: 4.92

Molecule: GGUAGGG [7-mer GGUAGGG]
- binding signal (RNAcompete z-score) [2]: 4.79

Molecule: GGUGGGG [7-mer GGUGGGG]
- binding signal (RNAcompete z-score) [1]: 5.21

Molecule: GGUUGGG [7-mer GGUUGGG]
- binding signal (RNAcompete z-score) [1]: 5.27

Molecule: CUAUGGA (ssRNA)
- binding signal [3]: ~5 fold decrease in affinity vs CUGUGGA

Molecule: UGUGGA (ssRNA)
- binding signal [3]: ~2 fold decrease in affinity vs CUGUGGA

Molecule: CUGAGGA (ssRNA)
- binding signal [3]: < 2 fold decrease in affinity vs CUGUGGA

Molecule: UAAUA (ssRNA)
- binding result [4]: no binding

Molecule: CUGUGGA (ssRNA)
- binding result [5]: binds
- binding result [6]: binds

Molecule: CAGUGGA (ssRNA)
- binding signal [3]: < 2 fold decrease in affinity vs CUGUGGA

Molecule: CUGUGGU (ssRNA)
- binding signal [7]: ~3 fold decrease in affinity vs CUGUGGA

Molecule: CCCAC (ssRNA)
- Kd [4]: ~7 µM
